From the Immune Epitope Database (IEDB)
Blank lines part the entries; values can stand above or below the sequence they belong to.

Columns and labels:
HLA-B*15:17 = assay: IEDB peptide-MHC binding, purified MHC/competitive/fluorescence; filed as Kd, often an IC50 or EC50 that approximates it; ≥ and ≤ were set here for values at or beyond the usual limits of such assays; details: source organism: Homo sapiens
HLA-A*02:01 [1] = assay: as above; details: source organism: Homo sapiens
HLA-A*26:01 = assay: as above; details: source organism: Homo sapiens
HLA-B*27:03 = assay: as above; details: source organism: Homo sapiens
HLA-B*57:01 = assay: as above; details: source organism: Homo sapiens
HLA-B*46:01 = assay: as above; details: source organism: Homo sapiens
HLA-A*69:01 = assay: as above
HLA-B*15:01 = assay: as above; details: source organism: Homo sapiens
HLA-B*51:01 [2] = assay: as above; details: source organism: Homo sapiens
HLA-B*18:01 [3] = assay: as above; details: source organism: Homo sapiens
HLA-B*39:01 = assay: as above; details: source organism: Homo sapiens
HLA-B*40:02 = assay: IEDB peptide-MHC binding, purified MHC/competitive/radioactivity; filed as Kd, often an IC50 or EC50 that approximates it; ≥ and ≤ were set here for values at or beyond the usual limits of such assays
HLA-B*44:02 = assay: as above
HLA-B*44:03 = assay: as above
HLA-B*45:01 = assay: as above
HLA-B*40:01 = assay: as above
HLA-B*18:01 [4] = assay: as above
HLA-A*02:01 [5] = assay: as above
HLA-A*02:06 = assay: as above; details: source organism: Dengue virus 2 Jamaica/1409/1983
HLA-A*24:03 = assay: IEDB peptide-MHC binding, purified MHC/direct/fluorescence; filed as Kd, often an IC50 or EC50 that approximates it; ≥ and ≤ were set here for values at or beyond the usual limits of such assays
HLA-B*48:01 = assay: as above; details: source organism: Salmonella enterica subsp. enterica serovar Typhi
HLA-A*02:01 [6] = assay: as above; details: source organism: Homo sapiens
HLA-B*53:01 = assay: IEDB peptide-MHC binding, purified MHC/competitive/radioactivity; filed as Kd, often an IC50 or EC50 that approximates it; ≥ and ≤ were set here for values at or beyond the usual limits of such assays; details: source organism: Dengue virus 3 Martinique/1243/1999
HLA-B*51:01 [7] = assay: as above
HLA-B*08:01 = assay: as above; details: source organism: Dengue virus 4 Philippines/H241/1956
[8] = source organism: SARS coronavirus Tor2
[9] = source organism: Mammarenavirus guanaritoense
[10] = source organism: Mammarenavirus brazilense
[11] = source organism: Lymphocytic choriomeningitis virus (strain Armstrong)

Kd (HLA-B*15:17): ≥ 20000 nM | Kd (HLA-A*02:01 [1]): ≥ 20000 nM | Kd (HLA-A*26:01): ≥ 20000 nM | Kd (HLA-B*27:03): ≥ 20000 nM | Kd (HLA-B*57:01): ≥ 20000 nM | Kd (HLA-B*46:01): ≥ 20000 nM | Kd (HLA-A*69:01; source organism: Homo sapiens): ≥ 20000 nM | Kd (HLA-B*15:01): ≥ 20000 nM | Kd (HLA-B*51:01 [2]): ≥ 20000 nM | Kd (HLA-B*18:01 [3]): ≥ 20000 nM | Kd (HLA-B*39:01): ≥ 20000 nM
Sequence: IYDFYYLDY

Sequence: KEEILGTVSW
Kd (HLA-B*40:02; [8]): 266 nM | Kd (HLA-B*44:02; [8]): 4.47 nM | Kd (HLA-B*44:03; [8]): 48.1 nM | Kd (HLA-B*45:01; [8]): 2810 nM | Kd (HLA-B*40:01; [8]): 19500 nM | Kd (HLA-B*18:01 [4]; [8]): 468 nM

Sequence: KLVSLGVNAV
Kd (HLA-A*02:01 [5]; source organism: Hepatitis C virus subtype 1b): 344 nM

Sequence: LVAGGLLTV
Kd (HLA-A*02:06): 3.95 nM | Kd (HLA-A*69:01; source organism: dengue virus type 2): ≥ 20000 nM

Sequence: LYNTAIVGL
Kd (HLA-A*24:03; source organism: Mycobacterium tuberculosis variant bovis): 0.8 nM

Sequence: MEAQFLYLYA
Kd (HLA-B*40:02; [8]): 68.7 nM | Kd (HLA-B*44:02; [8]): 56.3 nM | Kd (HLA-B*44:03; [8]): 8.16 nM | Kd (HLA-B*45:01; [8]): 4.51 nM | Kd (HLA-B*40:01; [8]): 1430 nM | Kd (HLA-B*18:01 [4]; [8]): 351 nM

Sequence: PECSDSPLVL
Kd (HLA-B*40:02; [9]): 3150 nM | Kd (HLA-B*44:02; [9]): ≥ 70200 nM | Kd (HLA-B*44:03; [9]): ≥ 70100 nM | Kd (HLA-B*45:01; [9]): ≥ 70000 nM | Kd (HLA-B*40:01; [9]): ≥ 33000 nM | Kd (HLA-B*18:01 [4]; [9]): 17300 nM

Sequence: QDPLLGTLS
Kd (HLA-B*40:02; [10]): 12600 nM | Kd (HLA-B*44:02; [10]): ≥ 77900 nM | Kd (HLA-B*44:03; [10]): ≥ 30400 nM | Kd (HLA-B*45:01; [10]): ≥ 74300 nM | Kd (HLA-B*40:01; [10]): ≥ 46400 nM | Kd (HLA-B*18:01 [4]; [10]): ≥ 77500 nM

Kd (HLA-A*02:01 [5]; source organism: Triticum aestivum): 384 nM
Sequence: QLIPCMDVVL

Sequence: RAVEPGSML
Kd (HLA-B*48:01): 712 nM

Sequence: REAPAHVST
Kd (HLA-B*40:02; [8]): 44.2 nM | Kd (HLA-B*44:02; [8]): 4580 nM | Kd (HLA-B*44:03; [8]): 8470 nM | Kd (HLA-B*45:01; [8]): 108 nM | Kd (HLA-B*40:01; [8]): 46.8 nM | Kd (HLA-B*18:01 [4]; [8]): 5190 nM

Sequence: REEAIRHVRA
Kd (HLA-B*40:02; [8]): 3330 nM | Kd (HLA-B*44:02; [8]): 18800 nM | Kd (HLA-B*44:03; [8]): ≥ 45900 nM | Kd (HLA-B*45:01; [8]): 57.6 nM | Kd (HLA-B*40:01; [8]): 689 nM | Kd (HLA-B*18:01 [4]; [8]): ≥ 70500 nM

Sequence: RELHLSWEV
Kd (HLA-B*40:02; [8]): 4.97 nM | Kd (HLA-B*44:02; [8]): 87.7 nM | Kd (HLA-B*44:03; [8]): 21.5 nM | Kd (HLA-B*45:01; [8]): 17.7 nM | Kd (HLA-B*40:01; [8]): 3.07 nM | Kd (HLA-B*18:01 [4]; [8]): 78.8 nM

Sequence: RELHLSWEVG
Kd (HLA-B*40:02; [8]): 198 nM | Kd (HLA-B*44:02; [8]): 8.3 nM | Kd (HLA-B*44:03; [8]): 42.7 nM | Kd (HLA-B*45:01; [8]): 1280 nM | Kd (HLA-B*40:01; [8]): 829 nM | Kd (HLA-B*18:01 [4]; [8]): 1590 nM

Sequence: SFMQEIPTF
Kd (HLA-A*24:03; source organism: Mammarenavirus juninense): 0.3 nM

Sequence: TEAILQLGDL
Kd (HLA-B*40:02; [11]): 936 nM | Kd (HLA-B*44:02; [11]): 2480 nM | Kd (HLA-B*44:03; [11]): 4300 nM | Kd (HLA-B*45:01; [11]): 13300 nM | Kd (HLA-B*40:01; [11]): 2960 nM | Kd (HLA-B*18:01 [4]; [11]): 10600 nM

Kd (HLA-A*02:01 [6]): ≤ 1 nM | Kd (HLA-B*15:17): ≥ 20000 nM | Kd (HLA-A*26:01): ≥ 20000 nM | Kd (HLA-B*27:03): ≥ 20000 nM | Kd (HLA-B*57:01): ≥ 20000 nM | Kd (HLA-B*46:01): ≥ 20000 nM | Kd (HLA-A*69:01; source organism: Homo sapiens): ≥ 20000 nM | Kd (HLA-B*51:01 [2]): ≥ 20000 nM | Kd (HLA-B*18:01 [3]): ≥ 20000 nM | Kd (HLA-B*39:01): ≥ 20000 nM
Sequence: TLKDGDFIL

Sequence: TPTGTVMDI
Kd (HLA-B*53:01): 114 nM | Kd (HLA-B*51:01 [7]; source organism: Dengue virus 3 Martinique/1243/1999): 7240 nM

Sequence: VALLRTYCI
Kd (HLA-B*08:01): 35.5 nM | Kd (HLA-B*51:01 [7]; source organism: Dengue virus 4 Philippines/H241/1956): 392 nM

Kd (HLA-B*15:17): 336 nM
Sequence: YSPALNKMF
